Key:
[1] = molecular target: T1, human PD-L1 expressed on cells (CHO-PD-L1, HCC1954, HCC827) (human, UniProt Q9NZQ7 19-290); experiment: flow cytometry with human SA, inhibition of PD-1 binding to HCC827 cells
T1 construct: whole, on cells; also called hPD-L1; PD-L1 expressing cells

[2] = molecular target: T1, human PD-L1 expressed on cells …; experiment: flow cytometry with human SA, inhibition of PD-1 binding to HCC1954 cells
[3] = molecular target: T1, human PD-L1 expressed on cells …; experiment: cell-based or functional assay
[4] = molecular target: CD137 on transgenic NF-kB Jurkat reporter cells (Homo sapiens (Human), UniProt Q07011 24-255); experiment: cell-based or functional assay
[5] = molecular target: T1, human PD-L1 expressed on cells …; experiment: flow cytometry with human SA, inhibition of PD-1 binding to HCC1954 cells; remark: listed apart in the source

IC50 [1]	IC50 [2]	Binder	also measured
53.8 µg/mL	0.0525 µg/mL	PRO1814 (multispecific antibody, also called PR01814) DIQMTQSPSSLSASVGDRVTITCQASQSINDYLAWYQQKPGKAPKLLIYKASTLASGVPSRFSGSGSGTDFTLTISSLQPEDFATYYCQAAYIITDIDNVFGTGTKVTVLGGGGGSEVQLVESGGGLVQPGGSLRLSCAASGFTFTDYTMDWVRQAPGKGLEWVADVNPNSGGSIYNQRFKGRFTLSVDRSKNTLYLQMNSLRAEDTAVYYCARNLGPSFYFDYWGQGTLVTVSSGGGGSGGGGSGGGGSGGGGSDIQMTQSPSSLSASVGDRVTITCKASQDVSIGVAWYQQKPGKAPKLLIYSASYRYTGVPSRFSGSGSGTDFTLTISSLQPEDFATYYCQQYYIYPYTFGTGTKVTVLGGGGGSQVQLQESGPGLVKPSETLSLTCKVSGFSFSSGYDMCWIRQPPGKGLEWIGCVVAGSVDITYYASWAKGRVTISVDSSKNQFSLKLSSVTAADTAVYYCARKDAYSDAFNLWGQGTLVTVSSGGGGSGGGGSIQMTQSPSSLSASVGDRVTITCQSSESVYSNNQLSWYQQKPGQPPKLLIYDASDLASGVPSRFSGSGSGTDFTLTISSLQPEDFATYYCAGGFSSSSDTAFGGGTKLTVLGGGGGSGGGGSGGGGSGGGGSEVQLVESGGGLVQPGGSLRLSCAASGFSLSSNAMGWVRQAPGKGLEYIGIISVGGFTYYASWAKGRFTISRDNSKNTVYLQMNSLRAEDTATYFCARDRHGGDSSGAFYLWGQGTLVTVSS	
88.2 µg/mL	0.0695 µg/mL	PRO1853 (multispecific antibody) DIQMTQSPSSLSASVGDRVTITCQASQSINDYLAWYQQKPGKAPKLLIYKASTLASGVPSRFSGSGSGTDFTLTISSLQPEDFATYYCQAGYIITDIDNVFGTGTKVTVLGGGGGSEVQLVESGGGLVQPGGSLRLSCAASGFTFTDYTMDWVRQAPGKGLEWVADVNPNSGGSIYNQRFKGRFTLSVDRSKNTLYLQMNSLRAEDTAVYYCARNLGPSFYFDYWGQGTLVTVSSGGGGSGGGGSGGGGSGGGGSDIQMTQSPSSLSASVGDRVTITCKASQDVSIGVAWYQQKPGKAPKLLIYSASYRYTGVPSRFSGSGSGTDFTLTISSLQPEDFATYYCQQYYIYPYTFGTGTKVTVLGGGGGSQVQLQESGPGLVKPSETLSLTCKVSGFSFSSGYDMCWIRQPPGKGLEWIGCVVAGSVDITYYASWAKGRVTISVDSSKNQFSLKLSSVTAADTAVYYCARKDAASDAFNLWGQGTLVTVSSGGGGSGGGGSIQMTQSPSSLSASVGDRVTITCQSSESVYSNNQLSWYQQKPGQPPKLLIYDASDLASGVPSRFSGSGSGTDFTLTISSLQPEDFATYYCAGGFSSSSDTAFGGGTKLTVLGGGGGSGGGGSGGGGSGGGGSEVQLVESGGGLVQPGGSLRLSCAASGFSLSSNAMGWVRQAPGKGLEYIGIISVGGFTYYASWAKGRFTISRDNSKNTVYLQMNSLRAEDTATYFCARDRHGGDSSGAFYLWGQGTLVTVSS	
53.5 µg/mL	0.0561 µg/mL	PRO1854 (multispecific antibody) DIQMTQSPSSLSASVGDRVTITCQASQSINDYLAWYQQKPGKAPKLLIYKASTLASGVPSRFSGSGSGTDFTLTISSLQPEDFATYYCQAGYIITDIDNVFGTGTKVTVLGGGGGSEVQLVESGGGLVQPGGSLRLSCAASGFTFTDYTMDWVRQAPGKCLEWVADVNPNSGGSIYNQRFKGRFTLSVDRSKNTLYLQMNSLRAEDTAVYYCARNLGPSFYFDYWGQGTLVTVSSGGGGSGGGGSGGGGSGGGGSDIQMTQSPSSLSASVGDRVTITCKASQDVSIGVAWYQQKPGKAPKLLIYSASYRYTGVPSRFSGSGSGTDFTLTISSLQPEDFATYYCQQYYIYPYTFGCGTKVTVLGGGGGSQVQLQESGPGLVKPSETLSLTCKVSGFSFSSGYDMCWIRQPPGKGLEWIGCVVAGSVDITYYASWAKGRVTISVDSSKNQFSLKLSSVTAADTAVYYCARKDAASDAFNLWGQGTLVTVSSGGGGSGGGGSIQMTQSPSSLSASVGDRVTITCQSSESVYSNNQLSWYQQKPGQPPKLLIYDASDLASGVPSRFSGSGSGTDFTLTISSLQPEDFATYYCAGGFSSSSDTAFGGGTKLTVLGGGGGSGGGGSGGGGSGGGGSEVQLVESGGGLVQPGGSLRLSCAASGFSLSSNAMGWVRQAPGKGLEYIGIISVGGFTYYASWAKGRFTISRDNSKNTVYLQMNSLRAEDTATYFCARDRHGGDSSGAFYLWGQGTLVTVSS	
16.8 µg/mL	0.0556 µg/mL	PRO1852 (multispecific antibody) DIQMTQSPSSLSASVGDRVTITCQASQSINDYLAWYQQKPGKAPKLLIYKASTLASGVPSRFSGSGSGTDFTLTISSLQPEDFATYYCQAAYIITDIDNVFGTGTKVTVLGGGGGSEVQLVESGGGLVQPGGSLRLSCAASGFTFTDYTMDWVRQAPGKCLEWVADVNPNSGGSIYNQRFKGRFTLSVDRSKNTLYLQMNSLRAEDTAVYYCARNLGPSFYFDYWGQGTLVTVSSGGGGSGGGGSGGGGSGGGGSDIQMTQSPSSLSASVGDRVTITCKASQDVSIGVAWYQQKPGKAPKLLIYSASYRYTGVPSRFSGSGSGTDFTLTISSLQPEDFATYYCQQYYIYPYTFGCGTKVTVLGGGGGSQVQLQESGPGLVKPSETLSLTCKVSGFSFSSGYDMCWIRQPPGKGLEWIGCVVAGSVDITYYASWAKGRVTISVDSSKNQFSLKLSSVTAADTAVYYCARKDAYSDAFNLWGQGTLVTVSSGGGGSGGGGSIQMTQSPSSLSASVGDRVTITCQSSESVYSNNQLSWYQQKPGQPPKLLIYDASDLASGVPSRFSGSGSGTDFTLTISSLQPEDFATYYCAGGFSSSSDTAFGGGTKLTVLGGGGGSGGGGSGGGGSGGGGSEVQLVESGGGLVQPGGSLRLSCAASGFSLSSNAMGWVRQAPGKGLEYIGIISVGGFTYYASWAKGRFTISRDNSKNTVYLQMNSLRAEDTATYFCARDRHGGDSSGAFYLWGQGTLVTVSS	
		PRO1494 (scFv, V domains shown) VH: QVQLQESGPGLVKPSETLSLTCKVSGFSFSSGYDMCWIRQPPGKGLEWIGCVVAGSVDITYYASWAKGRVTISVDSSKNQFSLKLSSVTAADTAVYYCARKDAASDAFNLWGQGTLVTVSS VL: DIQMTQSPSSLSASVGDRVTITCQASQSINDYLAWYQQKPGKAPKLLIYKASTLASGVPSRFSGSGSGTDFTLTISSLQPEDFATYYCQAGYIITDIDNVFGTGTKVTVLG	IC50, neutralization of PD-L1 in NF-AT potency assay [3]: 36.8 µg/mL
		PRO1992 (multispecific antibody) chain 1: DVVMTQSPSSLSASVGDRVTITCQASQIISSRSAWYQQKPGQPPKLLIYQASKLASGVPSRFSGSGSGTDFTLTISSLQPEDFATYYCQCTYIDSNFGAFGTGTKLTVLGGGGGSGGGGSGGGGSGGGGSEVQLVESGGGLVQPGGSLRLSCAASGFSFSSSYWICWVRQAPGKGLEWVGCVFTGDGTTYYASWAKGRFTISRDNSKNTVYLQMNSLRAEDTATYFCARPVSVYYYGMDLWGQGTLVTVSSGGGGSGGGGSDIQMTQSPSSLSASVGDRVTITCKASQDVSIGVAWYQQKPGKAPKLLIYSASYRYTGVPSRFSGSGSGTDFTLTISSLQPEDFATYYCQQYYIYPYTFGCGTKVTVLGGGSGGSDIQMTQSPSSLSASVGDRVTITCQASQSINDYLAWYQQKPGKAPKLLIYKASTLASGVPSRFSGSGSGTDFTLTISSLQPEDFATYYCQAAYIITDIDNVFGTGTKVTVLG chain 2: DIQMTQSPSSLSASVGDRVTITCQASQSISNRLAWYQQKPGKAPKLLIYSASTLASGVPSRFSGSGSGTDFTLTISSLQPEDFATYYCQSTYYGNDGNAFGCGTKVTVLGGGGGSGGGGSGGGGSGGGGSEVQLVESGGGLVQPGGSLRLSCAASGFSFSANYYPCWVRQAPGKCLEWIGCIYGGSSDITYDANWTKGRFTISRDNSKNTVYLQMNSLRAEDTAVYYCARSAWYSGWGGDLWGQGTLVTVSSGGGGSGGGGSQVQLQESGPGLVKPSETLSLTCKVSGFSFSSGYDMCWIRQPPGKGLEWIGCVVAGSVDITYYASWAKGRVTISVDSSKNQFSLKLSSVTAADTAVYYCARKDAYSDAFNLWGQGTLVTVSSGGGSGGGSEVQLVESGGGLVQPGGSLRLSCAASGFTFTDYTMDWVRQAPGKCLEWVADVNPNSGGSIYNQRFKGRFTLSVDRSKNTLYLQMNSLRAEDTAVYYCARNLGPSFYFDYWGQGTLVTVSS	EC50, NFkB reporter gene assay, HCC827 cells [4]: 0.253 nM; EC50, NFkB reporter gene assay, HCC1954 cells [4]: 0.0824 nM; IC50 [5]: 0.592 µg/mL

Reference: US20220411536A1 (NUMAB THERAPEUTICS, published 2022)
